Data as given in patent publication US20190218613A1, “METHODS OF DETECTING THE FORMATION OF CELLULAR CLUSTERS OF RNA” (The Regents of the University of California, priority 2017, published 2019).

B1: proteinase K: protease enzyme (protein, UniProt P06873 106-384, looked up)
Proteinase K: AAQTNAPWGLARISSTSPGTSTYYYDESAGQGSCVYVIDTGIEASHPEFEGRAQMVKTYYYSSRDGNGHGTHCAGTVGSRTYGVAKKTQLFGVKVLDDNGSGQYSTIIAGMDFVASDKNNRNCPKGVVASLSLGGGYSSSVNSAAARLQSSGVMVAVAAGNNNADARNYSPASEPSVCTVGASDRYDRRSSFSNYGSVLDIFGPGTSILSTWIGGSTRSISGTSMATPHVAGLAAYLMTLGKTTAASACRYIADTANKGDLSNIPFGTVNLLAYNNYQA
B2: RNase A: ribonuclease enzyme (protein, UniProt P61823 27-150, looked up)
Ribonuclease pancreatic: KETAAAKFERQHMDSSTSAASSSNYCNQMMKSRNLTKDRCKPVNTFVHESLADVQAVCSQKNVACKNGQTNCYQSYSTMSITDCRETGSSKYPNCAYKTTQANKHIIVACEGNPYVPVHFDASV

Tested on: 47× CAG RNA
Experiment: In vitro RNA phase separation/gelation assay (fluorescence micrographs, index of dispersion)
Format: biochemical
Conditions: proteinase K 60 U/mL, DNase I 200 U/mL, RNaseA 0.7 U/mL; 10 minutes, room temperature
Procedure: For phase separation/gelation assays, RNAs were diluted to concentrations of 0.5 ng/μL to 0.5 μg/μL in 10 mM Tris pH 7.0, 10 mM MgCl2, 25 mM NaCl buffer, unless indicated otherwise. Nuclease-free buffer stocks were purchased from Ambion. RNA was denatured at 95° C. for 3 minutes and cooled down at 1-4° C. per minute to 37° C. final temperature in a thermocycler and imaged immediately. Samples were visualized using a custom spinning disk confocal microscope (Nikon Ti-Eclipse equipped with a Yokogawa CSU-X spinning disk module) using a×100, 1.49 numerical aperture oil immersion objective and an air-cooled EM-CCD (electron multiplying charge-coupled device). The extent of phase separation/gelation was quantified by the index of dispersion (σ^2/μ) of fluorescence intensity per pixel (pixel size 83 nm×83 nm). Briefly, variance in the fluorescence intensity per image was determined, and normalized to the mean fluorescence intensity in the solution phase of the RNA. For dilute solution (<10% of imaging area occupied with clusters), this parameter reports the extent of inhomogeneity in the sample. At least 20 independent imaging areas (about 1,800 μm^2 each) were analyzed for each condition to achieve a representative measure across the sample. Each datum point in the bar graphs represents one imaging area. […]

| Molecule | dissolution of 47× CAG RNA clusters by enzyme treatment |
| --- | --- |
| B1 | not |
| B2 | dissolved |
